Results as given in patent US7745587 (DYAX, dated 2010).

Legend:
MMP-24 = MMP-24 (human, UniProt Q9Y5R2 156-328, limits assumed); test: cell-based or functional assay
human MMP-14 [1] = target: T1, human MMP-14 (human, UniProt P50281 112-541, limits assumed); test: cell-based or functional assay
human MMP-14 [2] = target: T1, human MMP-14; test: enzymatic assay, IgG, 2 nM MMP-14, peptide substrate at 10, 14, 18 µM; highest Ki measured
Protocol: (§1) K_i studies were performed using an enzymatic assay at substrate [Mca-Pro-Leu-Ala-Cys(Mob)-Trp-Ala-Arg-Dap(Dnp)-NH_2] concentrations of 10 μM, 14 μM and 18 μM. […] The concentration of MMP-14 was 2 nM.

human MMP-14 [3] = target: T1, human MMP-14; test: enzymatic inhibition assay, 2 nM MMP-14, 14 uM substrate Mca-Pro-Leu-Ala-Cys(Mob)-Trp-Ala-Arg-Dap(Dnp)-NH2; rate against [IgG] 0-50 nM
Protocol: as §1

human MMP-14 [4] = target: T1, human MMP-14; test: enzymatic inhibition assay, 2 nM MMP-14, 10 uM substrate Mca-Pro-Leu-Ala-Cys(Mob)-Trp-Ala-Arg-Dap(Dnp)-NH2; rate against [IgG] 0-50 nM
Protocol: as §1

Sequence of MMP-24 (Q9Y5R2 156-328 limits assumed): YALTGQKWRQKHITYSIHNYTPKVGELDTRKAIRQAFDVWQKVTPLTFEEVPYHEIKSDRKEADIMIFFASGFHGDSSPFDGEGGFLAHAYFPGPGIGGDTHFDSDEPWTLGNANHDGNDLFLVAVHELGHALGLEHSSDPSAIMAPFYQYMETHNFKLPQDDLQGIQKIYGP

B1: M0031-C02 Fab (Fab, V domains shown)
VH: EVQLLESGGGLVQPGGSLRLSCAASGFTFSPYPMGWVRQAPGKGLEWVSSIVSSGGLTLYADSVKGRFTISRDNSKNTLYLQMNSLRAEDTAVYYCARGGRLYDILTGQGAPFDYWGQGTLVTVSS
VL: DIQMTQSPLSLPVTPGEPASISCRSSQSLLHSNGYYYLDWYLQKPGQSPQLLIYLGSYRASGVPDRFSGSGSGTDFTLKISSVEAEDVGVYYCMQALQTPLTFGGGTRVDIK
MMP-24 activity, 100 nM final Fab with 5 nM MMP-24 (MMP-24): 54 % inhibition | IC50 of MMP-14 inhibition (MMP-14 at 2 pM), Fab (human MMP-14 [1]): 56 nM

B2: M0031-C02 IgG (antibody, V domains shown)
VH: B1 VH
VL: B1 VL
IC50 of MMP-14 inhibition (MMP-14 at 2 pM), IgG (human MMP-14 [1]): 8 nM

B3: M0038-F08 Fab (Fab, V domains shown)
VH: EVQLLESGGGLVQPGGSLRLSCAASGFTFSRYKMWWVRQAPGKGLEWVSGIRPSGGLTRYADSVKGRFTISRDNSKNTLYLQMNSLRAEDTAVYYCARRGDYVGGFDYWGQGTLVTVSS
VL: DIQMTQSPGTLSLSPGERATLSCRASQSVSSSYLAWYQQKPGQAPRLLIYGASSRATGIPDRFSGSGSGTDFTLTISRLEPEDFAVYYCQHYGGSQAFGGGTKVEIK
IC50 of MMP-14 inhibition (MMP-14 at 2 pM), Fab (human MMP-14 [1]): 31.1 nM

B4: M0038-F08 IgG (antibody, V domains shown)
VH: B3 VH
VL: B3 VL
IC50 of MMP-14 inhibition (MMP-14 at 2 pM), IgG (human MMP-14 [1]): 23 nM

B5: M0039-H08 Fab (Fab, V domains shown)
VH: EVQLLESGGGLVQPGGSLRLSCAASGFTFSAYNMGWVRQAPGKGLEWVSSISSSGGYTGYADSVKGRFTISRDNSKNTLYLQMNSLRAEDTAVYYCARDLYRGFDYWGQGTLVTVSS
VL: DIQMTQSPATLSVSPGERATLSCRASESVKNNLAWYQQKPGQAPRLLIYGVSTRAPGIPARFSGSGSGTDFTLTISSLEPEDFAVYYCQQRSNWPPVTFGQGTRLEIK
IC50 of MMP-14 inhibition (MMP-14 at 2 pM), Fab (human MMP-14 [1]): 23 nM

B6: M0039-H08 IgG (antibody, V domains shown)
VH: B5 VH
VL: B5 VL
IC50 of MMP-14 inhibition (MMP-14 at 2 pM), IgG (human MMP-14 [1]): 7.4 nM

B7: M0033-H07 Fab (Fab, V domains shown)
VH: EVQLLESGGGLVQPGGSLRLSCAASGFTFSVYGMVWVRQAPGKGLEWVSVISSSGGSTWYADSVKGRFTISRDNSKNTLYLQMNSLRAEDTALYYCARPFSRRYGVFDYWGQGTLVTVSS
VL: DIQMTQSPSSLSASVGDRVTITCRASQGIRNFLAWYQQKPGKVPKLLVFGASALQSGVPSRFSGSGSGTDFTLTISGLQPEDVATYYCQKYNGVPLTFGGGTKVEIK
IC50 of MMP-14 inhibition (MMP-14 at 2 pM), Fab (human MMP-14 [1]): 11.5 nM

B8: M0040-A06 Fab (Fab, V domains shown)
VH: EVQLLESGGGLVQPGGSLRLSCAASGFTFSYYGMYWVRQAPGKGLEWVSSISSSGGYTDYADSVKGRFTISRDNSKNTLYLQMNSLRAEDTAVYYCARRIKYYDIEGEGAFDIWGQGTMVTVSS
VL: DIVMTQTPPSLPVNPGEPASISCRSSQSLLHRNGYNYLDWYLQKPGQSPQLLIHLGSYRASGVPDRFSGSGSGTDFTLKISRVEAEDVGVYYCMQPLQTPFTFGPGTKVDIK
MMP-24 activity, 100 nM final Fab with 5 nM MMP-24 (MMP-24): 65 % inhibition | IC50 of MMP-14 inhibition (MMP-14 at 2 pM), Fab (human MMP-14 [1]): 8.6 nM

B9: M0040-A06 IgG (antibody, V domains shown)
VH: B8 VH
VL: B8 VL
IC50 of MMP-14 inhibition (MMP-14 at 2 pM), IgG (human MMP-14 [1]): 1.7 nM

B10: M0038-F01 Fab (Fab, V domains shown)
VH: EVQLLESGGGLVQPGGSLRLSCAASGFTFSLYSMNWVRQAPGKGLEWVSSIYSSGGSTLYADSVKGRFTISRDNSKNTLYLQMNSLRAEDTAVYYCARGRAFDIWGQGTMVTVSS
VL: DIQMTQSPSSLSAFVGDKVTITCRASQSVGTYLNWYQQKAGKAPELLIYATSNLRSGVPSRFSGSGSGTDFTLTINTLQPEDFATYYCQQSYSIPRFTFGPGTKVDIK
IC50 of MMP-14 inhibition (MMP-14 at 2 pM), Fab (human MMP-14 [1]): 3.8 nM

B11: M0037-C09 Fab (Fab, V domains shown)
VH: EVQLLESGGGLVQPGGSLRLSCAASGFTFSHYEMFWVRQAPGKGLEWVSSISPSGGQTHYADSVKGRFTISRDNSKNTLYLQMNSLRAEDTAVYYCATDRTYYDFWSGYGPLWYWGQGTLVTVSS
VL: DIQMTQSPLSLPVTLGESASVSCRSSQSLLHENGHNYLDWYLQKPGQSPQLLIYLGSNRASGVPDRFSGSGSGTDFTLKISRVEAEDVGVYYCMQSLKTPPTFGPGTKVEIK
MMP-24 activity, 100 nM final Fab with 5 nM MMP-24 (MMP-24): 72 % inhibition | IC50 of MMP-14 inhibition (MMP-14 at 2 pM), Fab (human MMP-14 [1]): 11.5 nM

B12: M0037-C09 IgG (antibody, V domains shown)
VH: B11 VH
VL: B11 VL
notes: IgG of the Fab; also called M037-C09
Ki (human MMP-14 [2]): 8.6 nM | Ki (human MMP-14 [3]): 6.3 nM | Ki (human MMP-14 [4]): 7.2 nM | IC50 of MMP-14 inhibition (MMP-14 at 2 pM), IgG (human MMP-14 [1]): 4.2 nM

B13: M0037-D01 Fab (Fab, V domains shown)
VH: EVQLLESGGGLVQPGGSLRLSCAASGFTFSMYMMIWVRQAPGKGLEWVSSIYPSGGNTMYADSVKGRFTISRDNSKNTLYLQMNSLRAEDTAVYYCATGVLRYFDWDAGSGMDVWGQGTTVTVSS
VL: DIQMTQSPSSLSASVGDRVTITCRASQGIRNDLGWYQQKPGKAPKRLIYVASSLQSGVPSRFSGSGSGTEFTLTISSLQPEDFATYYCLQHNSYPWTFGQGTKVEIK
IC50 of MMP-14 inhibition (MMP-14 at 2 pM), Fab (human MMP-14 [1]): 4.3 nM

B14: M0031-F01 Fab (Fab, V domains shown)
VH: EVQLLESGGGLVQPGGSLRLSCAASGFTFSTYEMHWVRQAPGKGLEWVSSIYSSGGWTGYADSVKGRFTISRDNSKNTLYLQMNSLRAEDTAVYYCARSQQYYDFSSRYYGMDVWGQGTTVTVSS
VL: QSELTQPPSVSGTPGQRVTISCSGTSANIGRNAVHWYQQLPGTAPKLLIHSNNRRPSGVPDRFSGSKSGTSASLAISGLQSEDEADYYCAAWENSLNAFYVFGTGTKVTVL
IC50 of MMP-14 inhibition (MMP-14 at 2 pM), Fab (human MMP-14 [1]): 25.3 nM

B15: M0031-F01 IgG (antibody, V domains shown)
VH: B14 VH
VL: B14 VL
IC50 of MMP-14 inhibition (MMP-14 at 2 pM), IgG (human MMP-14 [1]): 15.2 nM

B16: M0040-A11 Fab (Fab, V domains shown)
VH: EVQLLESGGGLVQPGGSLRLSCAASGFTFSHYVMFWVRQAPGKGLEWVSRIVPSGGATMYADSVKGRFTISRDNSKNTLYLQMNSLRAEDTAVYYCARDRPLYDSSGYVDYWGQGTLVTVSS
VL: QSALTQPPSASGSPGQSVTISCTGTSSDVGAYNYVSWYQQHPDKAPKLIIYNVNERPSGVPDRFSGSKSGNTASLTVSGLQAEDEADYYCTSYAGSNKIGVSGTGTKVTVL
MMP-24 activity, 100 nM final Fab with 5 nM MMP-24 (MMP-24): 58 % inhibition | IC50 of MMP-14 inhibition (MMP-14 at 2 pM), Fab (human MMP-14 [1]): 23.2 nM

B17: M0040-A11 IgG (antibody, V domains shown)
VH: B16 VH
VL: B16 VL
IC50 of MMP-14 inhibition (MMP-14 at 2 pM), IgG (human MMP-14 [1]): 6.7 nM

B18: M0038-E06 Fab (Fab, V domains shown)
VH: EVQLLESGGGLVQPGGSLRLSCAASGFTFSPYVMHWVRQAPGKGLEWVSSISPSGGWTYYADSVKGRFTISRDNSKNTLYLQMNSLRAEDMAVYYCARGTGAYGMDVWGQGTTVTVSS
VL: DIQMTQSPGTLSLSPGDRATLSCGASQLVVSNYIAWYQQKPGQAPRLLMYAGSIRATGIPDRFSGSGSGTDFTLTISRLEPEDFAIYYCQQRSNWPWTFGQGTKVEIK
IC50 of MMP-14 inhibition (MMP-14 at 2 pM), Fab (human MMP-14 [1]): 16.6 nM

B19: M0038-E06 IgG (antibody, V domains shown)
VH: B18 VH
VL: B18 VL
IC50 of MMP-14 inhibition (MMP-14 at 2 pM), IgG (human MMP-14 [1]): 7.2 nM

B20: M0043-G02 Fab (Fab, V domains shown)
VH: EVQLLESGGGLVQPGGSLRLSCAASGFTFSWYPMFWVRQAPGKGLEWVSGIYSSGGPTDYADSVKGRFTISRDNSKNTLYLQMNSLRAEDTAVYYCAKDTLGRYYDFWSGYSYGMDVWGQGTTVTVSS
VL: DIQMTQSPGTLSLSPGERATLSCRASQSVSSSYLAWYQQKPGQAPRLLIYGASSRATGIPDRFSGSGSGTDFTLTISRLEPEDFAVYYCQSGVTFGGGTKVEIK
MMP-24 activity, 100 nM final Fab with 5 nM MMP-24 (MMP-24): 74 % inhibition | IC50 of MMP-14 inhibition (MMP-14 at 2 pM), Fab (human MMP-14 [1]): 9.3 nM
